Experimental data from article PMC3575409, “Identification of a Novel Protein-Protein Interaction Motif Mediating Interaction of GPCR-Associated Sorting Proteins with G Protein-Coupled Receptors” (PLoS ONE, 2013).
Blank lines part the entries; values can stand above or below the molecule they belong to.

Assays:
Format in all cases: binding
[1] = system: GST-fused GPCR C-tails; experiment: GST-pull down, GPCR C-tails; conditions: for interaction with GPCR C-tails: twelve GPCR C-tails
Excerpt: (§1) cDNAs encoding the cytoplasmic C-tail of 14 GPCRs and 2 one-transmembrane receptors were cloned into the pGEX-2T prokaryotic expression vector downstream the GST sequence. The following pGEX constructs were engineered: pGEX-DOR encoding residues 314–372 of the δ-opioid receptor (referring to Swiss-Prot accession number U10504), pGEX-MOR encoding residues 334–400 of the µ-opioid receptor (L29301), pGEX-KOR encoding residues 326–380 of the κ–opioid receptor (U17298), pGEX-ORL1 encoding residues 315–370 of the opioid receptor-like 1 (X77130), pGEX-M1 encoding residues 414–460 of the muscarinic M1 acetylcholine receptor (X52068), pGEX-M2 encoding residues 436–466 of the muscarinic M2 acetylcholine receptor (M16404), pGEX- ADRB1 encoding residues 373–477 of the β1 adrenergic receptor (J03019), pGEX-ADRB2 encoding residues 322–413 of the β2 adrenergic receptor (P07550), pGEX-CALCR encoding residues 407–490 of the calcitonin receptor (L00587), pGEX-CNR2 encoding residues 295–360 of the cannabinoid type 2 receptor (P34972), pGEX-5HT7 encoding residues 380–445 of the 5-hydroxytryptamine 7 receptor (L21195), pGEX-H2 encoding residues 284–349 of the histamine 2 receptor (S57565), pGEX-TXA2 encoding residues 304–343 of the α isoform of the thromboxane A2 receptor (D38081), pGEX-FZ4 encoding residues 493–537 of the frizzled 4 receptor (AB032417), pGEX-TGFβ encoding residues 805–849 of the type III transforming growth factor b receptor (L07594), pGEX-IGF1 encoding residues 1268–1367 of the insulin growth factor I receptor (X04434). Free GST was produced by using the pGEX-4T3 expression vector without insert. The same plasmid was used to clone the cDNA encoding a central domain of GASP-1, corresponding to amino acids 380 to 1073, downstream the GST sequence. All these plasmids were transformed into the Escherichia coli BL21 strain and expression was induced using 1mM of isopropylthiogalactoside for 2 h at 37°C. Bacteria were then pelleted, resuspended in PBS supplemented with cOmplete protease inhibitors (Roche), lysed at 1.5 kbar using a basic Z cell disrupter (constant system) and finally the lysates were cleared by centrifugation (10,000g, 15 min, 4°C).
(§2) cDNAs encoding GASP-1 and GASP-2 were cloned into the pcDNA3 eukaryotic expression vectors. cDNAs encoding GASP-3, -6, -7, and -9 were subcloned into pcDNA3.1 vectors. All the clones were controlled by DNA sequencing. The in vitro production was performed by using the TNT Quick-coupled Transcription/Translation T7 kit (Promega) in presence of [^35S]-Methionine according to the instructions from the manufacturer.
GST-fusion proteins were immobilized on glutathione-coupled Sepharose beads (GE Healthcare) for 1 h at 4°C and incubated with [^35S]-labelled in vitro translated GASP proteins or their truncated or mutated forms in ice-cold binding buffer containing: 20 mM Tris-HCl pH 7.4, 150 mM NaCl, 1 mM EDTA, 1 mM DTT, 10% glycerol and 1% Triton X-100. The mixture was incubated for 1 h at 4°C with gentle rocking. The beads were washed five times with the same ice-cold buffer, resuspended in 30 µl SDS-PAGE sample buffer, incubated 10 min at 65°C, and pelleted for 60 s at 3000 g. The supernatants were then analyzed by SDS-PAGE, the gels were stained with Coomassie blue to visualize GST-fusion proteins, dried and analyzed using a Phosphor-imager (Personal Molecular Imager FX, Biorad) to visualize [^35S]-labelled GASPs. Quantification was performed with the Quantity One software (Biorad). GST-pull down quantification data were analyzed using GraphPad Prism 4.03 (GraphPad Software). Quantifications presented are means of at least three independent experiments. […]

[2] = system: GST-fused FZ4 C-tail; experiment: GST-pull down, FZ4 C-tail; conditions: strong = >10% of GASP input
Method: (§3) cDNAs encoding the cytoplasmic C-tail of 14 GPCRs and 2 one-transmembrane receptors were cloned into the pGEX-2T prokaryotic expression vector downstream the GST sequence. […]
(§4) GST-fusion proteins were immobilized on glutathione-coupled Sepharose beads (GE Healthcare) for 1 h at 4°C and incubated with [^35S]-labelled in vitro translated GASP proteins or their truncated or mutated forms in ice-cold binding buffer containing: 20 mM Tris-HCl pH 7.4, 150 mM NaCl, 1 mM EDTA, 1 mM DTT, 10% glycerol and 1% Triton X-100. […] The supernatants were then analyzed by SDS-PAGE, the gels were stained with Coomassie blue to visualize GST-fusion proteins, dried and analyzed using a Phosphor-imager (Personal Molecular Imager FX, Biorad) to visualize [^35S]-labelled GASPs. Quantification was performed with the Quantity One software (Biorad). GST-pull down quantification data were analyzed using GraphPad Prism 4.03 (GraphPad Software). Quantifications presented are means of at least three independent experiments.

[3] = system: GST-fused IGF1 (insulin growth factor I receptor) C-tail; experiment: GST-pull down, IGF1 C-tail; conditions: for interaction with IGF1 C-tail: non-GPCR control
Excerpt: as §1, §2
(§5) GST-fusion proteins were immobilized on glutathione-coupled Sepharose beads (GE Healthcare) for 1 h at 4°C and incubated with [^35S]-labelled in vitro translated GASP proteins or their truncated or mutated forms in ice-cold binding buffer containing: 20 mM Tris-HCl pH 7.4, 150 mM NaCl, 1 mM EDTA, 1 mM DTT, 10% glycerol and 1% Triton X-100. The mixture was incubated for 1 h at 4°C with gentle rocking. The beads were washed five times with the same ice-cold buffer, resuspended in 30 µl SDS-PAGE sample buffer, incubated 10 min at 65°C, and pelleted for 60 s at 3000 g. The supernatants were then analyzed by SDS-PAGE, the gels were stained with Coomassie blue to visualize GST-fusion proteins, dried and analyzed using a Phosphor-imager (Personal Molecular Imager FX, Biorad) to visualize [^35S]-labelled GASPs. Quantification was performed with the Quantity One software (Biorad). GST-pull down quantification data were analyzed using GraphPad Prism 4.03 (GraphPad Software). Quantifications presented are means of at least three independent experiments.

[4] = system: GST-fused TGFβ (type III transforming growth factor β receptor) C-tail; experiment: GST-pull down, TGFβ C-tail; conditions: for interaction with TGFβ C-tail: non-GPCR control
Excerpt: as §1, §2, §5

[5] = system: GST-fused CALCR C-tail; experiment: GST-pull down, CALCR C-tail
Method: as §3, §4

[6] = system: GST-fused DOR C-tail; experiment: GST-pull down, DOR C-tail
Excerpt: as §1, §2, §5

[7] = system: GST-fused H2 (histamine H2 receptor) C-tail; experiment: GST-pull down, H2 C-tail; conditions: percent of [35S]-GASP input; pH 7.4, 1 h at 4°C; three independent experiments
Method: as §3, §4

[8] = system: GST-fused M1 C-tail; experiment: GST-pull down, M1 C-tail; conditions: for interaction of truncated GASP-1 with M1 C-tail (words): compared with full-length GASP-1
Excerpt: as §1, §2, §5

[9] = system: GST-fused TXA2 C-tail; experiment: GST-pull down, TXA2 C-tail; conditions: percent of [35S]-GASP input; pH 7.4, 1 h at 4°C; three independent experiments
Method: as §3, §4

[10] = system: GST-fused ADRB1 C-tail; experiment: GST-pull down, ADRB1 C-tail; conditions: for interaction of truncated GASP-1 with ADRB1 C-tail (words): compared with full-length GASP-1
Excerpt: as §1, §2, §5

[11] = percent of [35S]-GASP input, pH 7.4, 1 h at 4°C, three independent experiments
[12] = percent of [35S]-GASP input, controls

B3: mutant 1025–1395: truncated mutant of GASP-1 corresponding to the conserved C-terminal domain (protein)
chain: ICRSTCSVEQEPDPSRRPQSWEEVTVQFKPGPWGRVGFPSISPFRFPKEAASLFCEMFGGKPRNMVLSPEGEDQESLLQPDQPSPEFPFQYDPSYRSVQEIREHLRAKESTEPESSSCNCIQCELKIGSEEFEELLLLMEKIRDPFIHEISKIAMGMRSASQFTRDFIRDSGVVSLIETLLNYPSSRVRTSFLENMIRMAPPYPNLNIIQTYICKVCEETLAYSVDSPEQLSGIRMIRHLTTTTDYHTLVANYMSGFLSLLATGNAKTRFHVLKMLLNLSENLFMTKELLSAEAVSEFIGLFNREETNDNIQIVLAIFENIGNNIKKETVFSDDDFNIEPLISAFHKVEKFAKELQGKTDNQNDPEGDQEN
modifications: [35S]-methionine labelled
- interaction of truncated GASP-1 with DOR C-tail ([6]; compared with full-length GASP-1): interacted only weakly
- interaction with DOR C-tail relative to full-length GASP-1 ([6]; percent of full-length GASP-1 interaction, three independent experiments): 25%
- interaction of truncated GASP-1 with M1 C-tail (words) [8]: did not display detectable interactions
- interaction of truncated GASP-1 with M1 C-tail (words) ([8]; listed as 1025–1395): no significant interaction
- interaction of truncated GASP-1 with ADRB1 C-tail (words) [10]: did not display detectable interactions
- interaction of truncated GASP-1 with ADRB1 C-tail (words) ([10]; listed as 1025–1395): no significant interaction

B4: mutant 470–838: truncated GASP-2 corresponding to the C-terminal domain (protein)
chain: KVSDRFRDAAEELNASSRPQTWDEVTVEFKPGLFHGVGFRSTSPFGIPEEASEMLEAKPKNLELSPEGEEQESLLQPDQPSPEFTFQYDPSYRSVREIREHLRARESAESESWSCSCIQCELKIGSEEFEEFLLLMDKIRDPFIHEISKIAMGMRSASQFTRDFIRDSGVVSLIETLLNYPSSRVRTSFLENMIHMAPPYPNLNMIETFICQVCEETLAHSVDSLEQLTGIRMLRHLTMTIDYHTLIANYMSGFLSLLTTANARTKFHVLKMLLNLSENPAVAKKLFSAKALSIFVGLFNIEETNDNIQIVIKMFQNISNIIKSGKMSLIDDDFSLEPLISAFREFEELAKQLQAQIDNQNDPEVGQQS
modifications: [35S]-methionine labelled
- interaction of GASP-2 mutants with CALCR C-tail ([5]; compared to wild-type GASP-2): almost no interaction
- interaction of GASP-2 mutants with M1 C-tail ([8]; compared to wild-type GASP-2): almost no interaction
- interaction of GASP-2 mutants with ADRB1 C-tail ([10]; compared to wild-type GASP-2): almost no interaction

More lines, main results first:

- interaction with IGF1 C-tail [3]: no interaction was detected
- interaction with TGFβ C-tail [4]: no interaction was detected
B1: GASP-3: member of the GASP family, two GASP motifs (protein)
chain: MAGTKNKTRAQAKTEKKAAIQAKAGAEREATGVVRPVAKTRAKAKAKTGSKTDAVAEMKAVSKNKVVAETKEGALSEPKTLGKAMGDFTPKAGNESTSSTCKNEAGTDAWFWAGEEATINSWFWNGEEAGNSFSTKNDKPEIGAQVCAEELEPAAGADCKPRSGAEEEEEENVIGNWFWEGDDTSFDPNPKPVSRIVKPQPVYEINEKNRPKDWSEVTIWPNAPAVTPAVLGFRSQAPSEASPPSYIVLASAEENACSLPVATACRPSRNTRSCSQPIPECRFDSDPCIQTIDEIRRQIRIREVNGIKPFACPCKMECYMDSEEFEKLVSLLKSTTDPLIHKIARIAMGVHNVHPFAQEFINEVGVVTLIESLLSFPSPEMRKKTVITLNPPSGDERQRKIELHVKHMCKETMSFPLNSPGQQSGLKILGQLTTDFVHHYIVANYFSELFHLLSSGNCKTRNLVLKLLLNMSENPTAARDMINMKALAALKLIFNQKEAKANLVSGVAIFINIKEHIRKGSIVVVDHLSYNTLMAIFREVKEIIETM
modifications: [35S]-methionine labelled
- GASP input retained by GPCR C-tails ([1]; percent of GASP input): > 10%
- interaction with GPCR C-tails [1]: medium to strong interactions
- interaction with FZ4 C-tail [2]: strong interaction

- interaction with IGF1 C-tail [3]: No interaction was detected
- GASP input retained by control IGF1 C-tail [3, 12]: less than 1%
- GASP input retained by H2 C-tail [7]: around 2%
- interaction with TGFβ C-tail [4]: No interaction was detected
- GASP input retained by control TGFβ C-tail [4, 12]: less than 1%
B2: GASP-6: member of the second GASP subfamily, without GASP motif (protein)
chain: MGYARKVGWVTAGLVIGAGACYCIYRLTRGRKQNKEKMAEGGSGDVDDAGDCSGARYNDWSDDDDDSNESKSIVWYPPWARIGTEAGTRARARARARATRARRAVQKRASPNSDDTVLSPQELQKVLCLVEMSEKPYILEAALIALGNNAAYAFNRDIIRDLGGLPIVAKILNTRDPIVKEKALIVLNNLSVNAENQRRLKVYMNQVCDDTITSRLNSSVQLAGLRLLTNMTVTNEYQHMLANSISDFFRLFSAGNEETKLQVLKLLLNLAENPAMTRELLRAQVPSSLGSLFNKKENKEVILKLLVIFENINDNFKWEENEPTQNQFGEGSLFFFLKEFQVCADKVLGIESHHDFLVKVKVGKFMAKLAEHMFPKSQE
modifications: [35S]-methionine labelled
- GASP input retained by CALCR C-tail [5, 11]: around 2%
- GASP input retained by DOR C-tail [6, 11]: around 2%
- interaction with GPCR C-tails [1]: very weak interactions
- GASP input retained by M1 C-tail [8, 11]: around 2%
- GASP input retained by TXA2 C-tail [9]: around 2%
- GASP input retained by ADRB1 C-tail [10, 11]: around 2%
